Test results: doi:10.64898/2025.12.09.693212

Target: T1, yeast topo II (full-length) (Saccharomyces cerevisiae, UniProt P06786 1-1428)
T1 sequence: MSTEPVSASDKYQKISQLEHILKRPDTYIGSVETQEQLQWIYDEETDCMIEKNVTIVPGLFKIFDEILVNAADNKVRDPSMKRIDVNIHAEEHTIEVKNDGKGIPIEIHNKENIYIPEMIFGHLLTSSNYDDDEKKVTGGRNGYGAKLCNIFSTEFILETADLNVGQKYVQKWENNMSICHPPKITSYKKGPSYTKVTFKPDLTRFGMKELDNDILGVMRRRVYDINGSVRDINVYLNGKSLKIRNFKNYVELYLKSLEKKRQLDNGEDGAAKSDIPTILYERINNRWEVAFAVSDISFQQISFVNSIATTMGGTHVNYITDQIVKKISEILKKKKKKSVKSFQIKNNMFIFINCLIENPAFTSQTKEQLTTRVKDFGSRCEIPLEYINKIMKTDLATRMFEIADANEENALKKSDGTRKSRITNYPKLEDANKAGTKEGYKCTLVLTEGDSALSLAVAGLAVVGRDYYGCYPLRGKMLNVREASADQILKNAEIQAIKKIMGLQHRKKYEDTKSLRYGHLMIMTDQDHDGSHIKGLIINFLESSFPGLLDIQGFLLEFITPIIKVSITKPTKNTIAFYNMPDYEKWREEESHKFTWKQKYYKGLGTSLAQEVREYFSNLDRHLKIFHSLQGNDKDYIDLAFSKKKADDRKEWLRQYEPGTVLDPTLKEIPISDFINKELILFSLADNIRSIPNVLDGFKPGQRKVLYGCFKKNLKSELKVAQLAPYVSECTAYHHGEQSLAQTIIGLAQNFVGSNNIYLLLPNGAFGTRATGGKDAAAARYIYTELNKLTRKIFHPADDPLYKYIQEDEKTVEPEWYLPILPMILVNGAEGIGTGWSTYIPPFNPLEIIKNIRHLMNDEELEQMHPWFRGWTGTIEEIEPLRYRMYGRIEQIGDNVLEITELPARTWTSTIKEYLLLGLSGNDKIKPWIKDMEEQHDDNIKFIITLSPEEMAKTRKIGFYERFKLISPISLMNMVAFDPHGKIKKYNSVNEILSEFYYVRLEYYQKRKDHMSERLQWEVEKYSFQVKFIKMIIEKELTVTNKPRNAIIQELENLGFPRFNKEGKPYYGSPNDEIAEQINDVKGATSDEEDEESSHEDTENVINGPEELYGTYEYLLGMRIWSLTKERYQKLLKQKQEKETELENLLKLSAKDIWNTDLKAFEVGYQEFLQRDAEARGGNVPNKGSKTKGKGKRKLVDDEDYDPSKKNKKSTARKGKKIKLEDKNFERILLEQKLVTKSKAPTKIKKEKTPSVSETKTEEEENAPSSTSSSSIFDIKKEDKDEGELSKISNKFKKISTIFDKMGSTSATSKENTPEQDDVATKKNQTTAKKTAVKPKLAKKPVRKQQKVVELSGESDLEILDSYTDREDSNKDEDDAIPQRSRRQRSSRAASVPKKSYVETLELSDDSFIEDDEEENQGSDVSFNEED
Assay: EMSA

B1: 51 bp dsDNA (dsDNA)
DNA 1: TATTTTCTTGTTCTTTTACATCAACACAATGTGACCATTACCTGGTTATCA
DNA 2: TGATAACCAGGTAATGGTCACATTGTGTTGATGTAAAAGAACAAGAAAATA
Q: B1 was tested. Which Kd did it give?
A: ~0.05 µM
